For this experiment, the target named is T1, DLG1-1 PDZ (DLG1 PDZ1, residues 220-317) (human, UniProt Q12959 220-317).
T1 construct: not shown: His tag, N-terminal, kept
T1 sequence (Q12959 220-317): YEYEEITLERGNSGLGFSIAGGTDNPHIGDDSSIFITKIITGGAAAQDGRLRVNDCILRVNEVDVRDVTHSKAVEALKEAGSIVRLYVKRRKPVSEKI
Briefly: fluorescence polarisation. As to conditions: both partners purified. Background: Polarisation of emitted light reports the rotation of a fluorescent probe.
In general, Ki refers to the dissociation constant of the complex between target and ligand, obtained from inhibition or displacement. Low readings indicate tighter binding, high ones weaker binding. EDETAL [A9V7Z4 peptide (EDETAL)] yielded a Ki of 460 ± 190 µM.

QDETAL [A9UXE1 peptide (QDETAL)] yielded a Ki of 190 ± 20 µM.

Regarding SSRTRRETQL [HPV16 E6 peptide (SSRTRRETQL)], the Ki stood at 23 ± 5 µM.

With QSSSEA [GAIP peptide (QSSSEA)], the Ki stood at 980 ± 180 µM.

In the case of QSESRL [A9UP44 peptide (QSESRL)], the Ki amounted to 39 ± 25 µM.

Molecule ESESKV [GIRK3 peptide (ESESKV)] displayed a Ki of 350 ± 20 µM.

With ASESKV [B1AR peptide (ASESKV)], the affinity corresponds to a Ki of 44 ± 23 µM.

WDETNL [BPIX peptide (WDETNL)] returned a Ki of 460 ± 140 µM.

In the case of PNQSVV [TYRP1 peptide (PNQSVV)], the Ki turned out to be 46 ± 21 µM.

Values taken from article PMC8512817, “Domain Analysis and Motif Matcher (DAMM): A Program to Predict Selectivity Determinants in Monosiga brevicollis PDZ Domains Using Human PDZ Data” (Molecules, 2021).
